Substitutions are numbered along the chain they refer to.
B1: ADI-10159 Fab (Fab, V domains shown)
VH: EVQLVESGGGLVQPGGSLRLSCAASGFTFSSYGMSWVRQAPGKGLEWVANIKQDGSEKYYVDSVKGRFTISRDNAKNSLYLQMNSLRAEDTAVYYCAREGGPYYDSSGYFVYYGMDVWGQGTTVTVSS
VL: DIQMTQSPSTLSASVGDRVTITCRASQSISSWLAWYQQKPGKAPKLLIYDASSLESGVPSRFSGSGSGTEFTLTISSLQPDDFATYYCQQYESFPTFGGGTKVEIK
B2: ADI-10177 Fab (Fab, V domains shown)
VH: EVQLVESGGGLVQPGGSLRLSCAASGFTFSSYWMSWVRQAPGKGLEWVANIKQDGSEKYYVDSVKGRFTISRDNAKNSLYLQMNSLRAEDTAVYYCARPLNAGELDVWGQGTMVTVSS
VL: DIQMTQSPSTLSASVGDRVTITCRASQSISSWLAWYQQKPGKAPKLLIYEASSLESGVPSRFSGSGSGTEFTLTISSLQPDDFATYYCQQLESYPLTFGGGTKVEIK
B3: ADI-11776 Fab (Fab, V domains shown)
VH: EVQLLESGGGLVQPGGSLRLSCAASGFTFSKYTMSWVRQAPGKGLEWVSAIVGSGESTYFADSVKGRFTISRDNSKNTLYLQMNSLRAEDTAVYYCAREGGPYYDSSGYFVYYGMDVWGQGTTVTVSS
VL: B1 VL with D50K, E92D, S93D, F94L
B4: ADI-11807 Fab (Fab, V domains shown)
VH: B2 VH with S30G, N50T, Y59S
VL: DIQMTQSPSTLSASVGDRVTITCRASQSISSWLAWYQQKPGKAPKLLIYEASSLESGVPSRFSGSGSGTEFTLTISSLQPDDFATYYCQQSQSYPPITFGGGTKVEIK
B5: ADI-11809 Fab (Fab, V domains shown)
VH: B2 VH with S30P, N50T, Q53R, Y59G
VL: B4 VL
B6: ADI-11819 Fab (Fab, V domains shown)
VH: EVQLVESGGGLVKPGGSLRLSCAASGFTFSSYAMSWVRQAPGKGLEWVSSISSSSEGIYYADSVKGRFTISRDNAKNSLYLQMNSLRAEDTAVYYCAREGGPYYDSSGYFVYYGMDVWGQGTTVTVSS
VL: B1 VL with Q27N, D50E, L54T, E55K, E92D, S93D, F94L
B7: ADI-11830 Fab (Fab, V domains shown)
VH: EVQLVESGGGLVQPGGSLRLSCAASGFTFSSYWMSWVRQAPGKGLEWVANINTDGSEVYYVDSVKGRFTISRDNAKNSLYLQMNSLRAEDTAVYYCARDVGPGIAYQGHFDYWGQGTLVTVSS
VL: DIQMTQSPSSLSASVGDRVTITCRASQVIYSYLNWYQQKPGKAPKLLIYAASSLKSGVPSRFSGSGSGTDFTLTISSLQPEDFATYYCQQVYDTPLTFGGGTKVEIK
B8: ADI-11835 Fab (Fab, V domains shown)
VH: QLQLQESGPGLVKPSETLSLTCTVSGGSISSTDYYWGWIRQPPGKGLEWIGSIGYSGTYYNPSLKSRVTISVDTSKNQFSLKLSSVTAADTAVYYCARETAHDVHGMDVWGQGTTVTVSS
VL: EIVLTQSPATLSLSPGERATLSCRASHSVYSYLAWYQQKPGQAPRLLIYDASNRATGIPARFSGSGSGTDFTLTISSLEPEDFAVYYCQQYDNLPTFGGGTKVEIK
B9: ADI-11815 Fab (Fab, V domains shown)
VH: QVQLVQSGAEVKKPGASVKVSCKASGYTFGTYYMHWVRQAPGQGLEWMGIINPSRGSTVYAQKFQGRVTMTRDTSTSTVYMELSSLRSEDTAVYYCARGAGYDDEDMDVWGKGTTVTVSS
VL: B7 VL with L11V, V28G, Y30D, Y32W, N34A, K55Q, V91A, Y92H, D93S, T94Y
B10: ADI-10157 Fab (Fab, V domains shown)
VH: QVQLQESGPGLVKPSETLSLTCTVSGGSISSYYWSWIRQPPGKGLEWIGSIYYSGSTNYNPSLKSRVTISVDTSKNQFSLKLSSVTAADTAVYYCARVGGVYSTIETYGMDVWGQGTTVTVSS
VL: EIVMTQSPATLSVSPGERATLSCRASQSVSSNLAWYQQKPGQAPRLLIYGASTRATGIPARFSGSGSGTEFTLTISSLQSEDFAVYYCQQYTVYPPTFGGGTKVEIK
B11: ADI-10161 Fab (Fab, V domains shown)
VH: EVQLVESGGGLVQPGGSLRLSCAASGFTFSSYWMSWVRQAPGKGLEWVANINQDGSEKYYVDSVKGRFTISRDNAKNSLYLQMNSLRAEDTAVYYCAREGGDSWYHAFDIWGQGTMVTVSS
VL: DIQMTQSPSSVSASVGDRVTITCRASQGISSWLAWYQQKPGKAPKLLIYAASNLQSGVPSRFSGSGSGTDFTLTISSLQPEDFATYYCQQKLSLPLTFGGGTKVEIK
B12: ADI-11812 Fab (Fab, V domains shown)
VH: B9 VH with G30E, T31I, R55S
VL: B11 VL with S30D, N53S, K91A, L92H, L94Y
B13: ADI-11825 Fab (Fab, V domains shown)
VH: EVQLVESGGGLVQPGGSLRLSCAASGFTFGGYWMSWVRQAPGKGLEWVANINQDGSEEYYVDSVKGRFTISRDNAKNSLYLQMNSLRAEDTAVYYCAREANYYGNVGDDYWGQGTLVTVSS
VL: B7 VL with V28S, S31N, S53N, K55H, V91A, Y92F, D93H, T94V, L96I
B14: ADI-11826 Fab (Fab, V domains shown)
VH: B13 VH with G30P, E58V
VL: B7 VL with V28S, S31N, L54T, K55Q, V91A, Y92F, D93H, T94V, L96I
B15: ADI-11828 Fab (Fab, V domains shown)
VH: B7 VH with T53Q
VL: B7 VL with V28S, S31Y, L54R, K55Q
B16: ADI-11839 Fab (Fab, V domains shown)
VH: QVQLVQSGAEVKKPGASVKVSCKASGYTFSNYYMHWVRQAPGQGLEWMGWINPFSGGTRYAQKFQGRVTMTRDTSTSTVYMELSSLRSEDTAVYYCARDVGSSAYYYMDVWGKGTTVTVSS
VL: B11 VL with R24E, Q27K, N53D, K91A, L92F, S93L, L94F, L96P

Key:
[1] = target: human CD33 R69G (human) (UniProt P20138); assay: SPR, Fab captured, 37C
Chain of human CD33 R69G (human) (P20138 18-259 R69G): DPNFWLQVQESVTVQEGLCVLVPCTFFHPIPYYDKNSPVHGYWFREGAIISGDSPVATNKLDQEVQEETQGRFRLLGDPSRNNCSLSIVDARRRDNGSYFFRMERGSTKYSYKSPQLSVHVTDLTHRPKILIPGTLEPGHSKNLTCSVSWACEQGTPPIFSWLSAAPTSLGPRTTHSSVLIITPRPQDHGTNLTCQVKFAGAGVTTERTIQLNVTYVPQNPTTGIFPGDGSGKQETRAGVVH

[2] = target: human CD33 S128N (human) (UniProt P20138); assay: SPR, Fab captured, 37C
Chain of human CD33 S128N (human) (P20138 18-259 S128N): as the sequence (P20138 18-259 R69G) above, with G52R, S111N counted along it

Binder | Kd [1] [nM] | koff [1] [s⁻¹] | kon [1] [M⁻¹ s⁻¹] | Kd [2] [nM] | koff [2] [s⁻¹] | kon [2] [M⁻¹ s⁻¹]
B1 | 5.68 | 0.00243 | 426000 |  |  | 
B2 |  |  | 230000 |  |  | 
B3 | 0.22 | 0.000426 | 1.98e+06 |  |  | 
B4 | 0.43 | 0.000259 | 597000 |  |  | 
B5 | 0.22 | 0.000179 | 815000 |  |  | 
B6 | 0.09 | 0.000244 | 2.78e+06 |  |  | 
B7 | 2.94 | 0.00663 | 2.27e+06 |  |  | 
B8 | 0.67 | 0.00205 | 3.07e+06 |  |  | 
B9 | 4.34 | 0.0013 | 300000 |  |  | 
B10 | 17.8 | 0.0287 | 1.56e+06 | 163 | 0.00924 | 56500
B11 | 48.9 | 0.0307 | 629000 | 63.6 | 0.0385 | 605000
B12 | 6.74 | 0.00228 | 338000 | 2.01 | 0.00112 | 556000
B13 | 3.74 | 0.00695 | 1.86e+06 | 3.09 | 0.00649 | 2.1e+06
B14 | 3.83 | 0.00723 | 1.89e+06 | 2.65 | 0.00574 | 2.17e+06
B15 | 6.03 | 0.007 | 1.16e+06 | 5.41 | 0.00742 | 1.37e+06
B16 |  |  |  | 29.5 | 0.0284 | 963000
